In the domain aggregation screens of Martell et al. (2025):

Assay: soluble fraction after stress (log2 fold change); higher = more stays soluble; pooled small domains, quantitative proteomics
Settings: stress: pH 4
In short: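 Aggregation propensity here comes from the fold change in the soluble amount of each small protein domain after acid stress, measured in pooled custom libraries by high-throughput quantitative proteomics. The acid stress was pH 4. On the log2 scale, higher values mean more of the domain stayed soluble.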

Row | Sequence | soluble fraction (log2)
1 | HMREVTVGSAVRLKKGAKTYSGGSLASFVYERNHQVTQLSGDRAVISFKGTVVAAVHKDDLIL | -0.0626
2 | HMVDGTPALTDLKKVSKPGRRHYTGSQEIPRVLNGLGISIVSTSKGIMTGAQARRQKVGGELLAFV | 0.22
3 | HMNIMNINQALNVLNLKGTVSKEELAKAYKKMAIKYHPDRNPTGVEMMKVINSAYEFLKGLNLEEIKH | 0.252
4 | HMADTSLDHLGVLVRHASDVDAWAEFFENRGVTLASQPRTHRDGARSFYVDDPDGNRVQVIYHPPI | -0.81
5 | HMGEPVASSREVAKRFGKEHKHVLAAIRQILVAENSATKFFHETAFEYRGQRFPEYLMNRDGFALLAMGF | -1.35
6 | HMVPEETKQFINQLNHGSLSIRMNAANNLEKLGLLAIPEIEAALPKAHGEAAFRLPRLLHALVLRETEYF | 0.0598
7 | HMLTIEEYLTQLKKLMKDRDAATVRDALSDAEEHLRNAMAGEDPSRLDGIIEEYGSPEEIAAAYKIMEEHT | -0.715
8 | HMSDDVELLGRLSDREVSVLQYLSQGYSNKQISEQMFISNKTVSTYKARLLLKLNAGSLVDLIEFAKRNTL | -0.961
9 | HMSKMVEMSQEKSREKVARVKIEIQKMLDRKERVTVSGLERATGFSNSFFYRNEEVNQAVKEAQLKQ | 0.0693
10 | HMGDIMLLFKENGKVYFLVGNQYTYVKNPTELSAIKTMMKQAGYDTHEHTNTTQVAYIKRLATE | -0.419
11 | HMLEIDPPVDEISVSRKAFYEAAGYKVNPYTHIPPRYRKEFEEHSFVVMSWPRELPEETYRKFDRYLRDV | -0.253
12 | HMTVTMADISQAYNEKRYLTTISLSNTYLTFAKPTTELLSIRYRTYFIIGKYAESLTEIAKL | 0.22
13 | HMRAPEIEAARSDLDVGQTVQIVRHLHGNQYEVFYRGAQWQAEAVGSSGANDAQTAVITGKNGNILLIQI | -0.297
14 | HMAEQEELDAIRPDLDGQEIMDILGIKPGREVGAARNFLLELRLDEGPLGYDEAVSRLLTWWAERT | -1.2
15 | HMANYYEILGVKHDATEAEIKAAYKQAAKSAHPDAGGSNEKMQEVNAAWEVLGNAQKRAEYDARMA | 0.349
16 | HMKITADQEIETAINYFKKSIAEKGWKGVNPDEFKQMNDYLSETFGYSATIKFQKALDEQGLMVDE | -0.429
17 | HMSEDAVKFRAAVEVENGLAQRNLNKNQAALILGVDRSYFTYIISGKKTPSPDMAKRIGLLLGFDWRVFYA | -0.324
18 | HMKQTMIVVMEKDAPQSQIDDMVKRIEGLGLKAHTIVGTQRTVVAAIGEKREDTRESLAGSPGVAEVVPIL | -0.137
19 | HMRDTAKTLLAMEVVGENNKKNLQAFGIQKGDQNYQTAVVVRLMQKALMEGDTSAIRLIGELTGD | -0.44
20 | HMPKNEHETKAIGNQTGGRVFLFLNTDNINRDYNMYISKQVKFVREISQEYYGKVAVFEDLYGNLWDLIE | -0.222
21 | HMGEQYYVLIDNKQNGPHNINAIQKMIDQNIVNRQTLIWKKGMTDWGNIMDDKDLKEMVNKIP | 0.0559
22 | HMSSPEAAEVQRLLKDGQHVQALKIIDESLARNPKDPQMRFRRGVALSMLDRKNEALAVFQKLVED | -0.0849
23 | HMLPIGSSREQVISSLNKMHQDYKEEGNFIYAGYFKQGLPLVPSPRISIALQFNETAHLEKIDATLNYV | -0.467
24 | HMPSDTNLIGKTGIAYTTLRPGGTALIDDRKVDVVADSEYIEKDKKIKVIRVEGIKVVVTAVK | 0.194
25 | HMRPEARAASLSDEERKIFDYLAANGEKTIDNISVAVKMSAADILKNITLMSAKGLVYMPSAGRYGVKGN | 0.0795
26 | HMGMKTSQKLARQREIVRLIRAQTIRTQAELADALRERAFPVSQPTLSKDIAELGLIKVPLPDSGYRYQLP | -0.105

Row | Sequence | soluble fraction (log2)
27 | HMPKRYAGPDIIAIYGSDVFFRVGSGDGLMVIPVGRSMDNIEVVSVDAPRSVELMWKDGGPFTVPV | -0.218
28 | HMEVGVSGTVFNTDSLNVRKGPGTNFDTVTSLKRGSVVEVFEQSAVDGTVWGRIANGWVNMQYVSL | -0.0681
29 | HMATPRLAIVPQSAAGRRLDAVLAELFPEYSRSRLSAWIKTGDVMVDGAAPRGRDPVRGGEEITLTAVQ | 0.113
30 | HMTELNNTQRAAVLLLALDEDSAAEVFKHLSAREVQEVSQEMAKLGNISHDQMRQVLDDFYDESEQF | -1.01
31 | HMENLRLSELTVERGHRLAGRTLADIASAPNSPKYLIVLIQRGQETVIPTGSTVILPGDVLILAQS | -0.749
32 | HMDSEKVLTNLKEELVLQLSNIEPYGYVPSQYWYSKVQRVQSVQELGKYVDGDLEAFVMKYAEDWESQK | -0.951
33 | HMTNYSFIVNENFNNKRIDQVVANHYPKISRTKVNKIIKNNLLKLNGSTFNDPSAKVKLGDQIEFENL | 0.00451
34 | HMNGELSQRQWQILRLIAQGLSNEQMARQLFVAPSTIKTHINHLYAKLGVRTRAEAQAIARQKLMA | -0.0448
35 | HMVKNTIHVDLKGEVNKPGVYEVEEGTIVNDLITLANGFTKNAYQDNINLSKKLTDEMVIVVSKKGS | -0.461
36 | HMGTVISVDKARSIALAKVPGASANDIRIHLDRDDGRQIYEGEIYYNRMEYEFEIDASTGTIIEWSAEHW | 0.00283
37 | HMATVTVPNLKGMTPSGAESALAELNLKGAVGDSVESNDVENGKVASQDQAAGSDAKEGDTITYHLSS | -0.103
38 | HMAMDYYAIGQRIRKFRKAHDWSQEELAEKVEISTTHMSHIETGSTKLSLPVLVSLANVLDVRTDDLLF | -0.272
39 | HMDYLYHNGKEIDQGSIMYKMEDYSDGIFELQSAKYADGTELDEKELEELESTQELIDWVMIDFVS | -1.99
40 | HMEDSSSILNRMRKLIALLNRASEAYYKENKEIISNFEYDRLYDELLGLESRSNTVLSGSPTYKV | -1.21
41 | HMAQRAADEARTHEILGLLRQARAALDHGGTARAARLRASIAEKLPAAPALPAWFARQLEQVDSQLAELQD | -0.568
42 | HMQTKSDMVYHRVREDIVNGVFAPGERLLISAVAKQYGVSEIPVREAFRVLSQEGFLKTRPNSGFVVS | -0.294
43 | HMRLPVELTDREVEVLRLLAQAMSNGEIARELYIGEATVKTHVSNVLQKLGARDRVAAVVWAHRYGL | -1.16
44 | HMLKNYATPEQRAQLDMLKDKGIIGENELMQLGKYPSQDKASEVLENHADAVKMLDSDEISNRAEAIRSHD | 0.22
45 | HMGTLPSLAPSGEKTVRLPNLAGWSLRETMEILQKGGLQLLPIGSGISFKQSPPPGTTLNEGDAVTVWF | 0.103
46 | HMFTYEETIGKSADVYLTIPALKAGKGKIIISVRGSVHELDAMTNNAEKISTGAVVKIVRIEHGNILLVEN | -0.44
47 | HMSEQIALQFAKAKQHHTGIALKGIEALELRYKGYTGKEIAALYHTSPKSVFSWISRAKQKLRQN | ≥ 0.43
48 | HMEEQKYEYHLGDVVYLGVDKYEILGITNNIVTLYDPEFPLLNKQLDFDEFEKRVKDNYANEHLKVT | -0.545
49 | HMTKKSLFNQYLDDQKRLDIVTLQKAELVDLHKLADELNIDQYNQLKKNELIFKILQSNPSE | -0.361
50 | HMGPSEVTLDNFVGKNYTDVVNDTSYQFTFKKEEKSDQTHAAGIIIAQSPKKGIKVKSNSTVTLTVSTG | 0.216
51 | HMGDGYTYYYDDTVLALGFTKIGNDYYIFNTFSGKMYKDATMWVNDNPYGIKGGMHYFDASGKMFV | -0.439
52 | HMSNGEWQQGSDGRWWYKFSDGTYPKNKVETIGGKKYGFDSEGWMLANTTKEFSGTTYSFGADGVATS | -0.0709

Row | Sequence | soluble fraction (log2)
53 | HMSTTDGIERFLASGAVKGIGRTMAARIVEHFGSRTLTVMESEPERLTEVAGIGRKKAESIAASYAELS | -0.137
54 | HMDPQDGTVKFFNGARGFGFITPDGGGADVFVHVSAVERAGLTQLVEGQRVNFQTLPDTKGKGPKAVNLKV | -0.531
55 | HMSNEVSYSDFVRSVESDEVNAVTLDGEQIRFVGNDGQTYSVIKPADAQITQLLIDNNVTVRAEQQ | -0.0566
56 | HMSYYKEMIRLADSIADKAHEGQTDRNGWPYISHPRRVALGARKLVSEMASSTSPDTSLEELKAEVQIVAL | 0.00833
57 | HMHPQISVEGVLPLKEAVEFVEREIISHAYSRYRATREVARHLGIDPSTVLRKAAKYGITVEPGKN | -0.372
58 | HMTNISDYILEEYYKNVYPNDLNTKRIVIPNKYEEYAGKYTYITIARMVTYEHDAKKALKVLHQQAT | -0.346
59 | HMHDAKTQLQEEAARRGLPAPVYTRIGQEGPDHAPRFRVRADVGPHQAEAVAGSLKLAQAEAARAILRQMP | 0.28
60 | HMLEVTQTDVKMYTTSGTPVYAAPDLNSAIVVYLERFVNVTVTGITDNGFYRVNLNGDYYIPGPYLISSV | -0.759
61 | HMTSEVPVGSNVRIRASTLAGERDFEGTMLPPAGEGLTTLKLVNGYNLSYPSKDVLDIEFLGGAGE | -0.367
62 | HMHGEAEFLDATAVVMEKLNPGGLVKIKGEIWQAVSKDGHTIQEGEKVRVFERQGITLLVGHF | -0.223
63 | HMNDGTIRVGTNVTIKPSAKRWATGQNIYYGVKGKTYKVIQMNGNRLLLDKVISWINKGDVYVPGS | 0.192
64 | HMLPRNKRIEIALTYIYGLGRHAATVVLKHANISPDKRTDDLDENDVRKLRDAIDANFRVEGDLRR | -0.0555
65 | HMENQGEDMRQQVKALVNADKTNITKLATATGYSRSTISMYLAGNYKGDVEAVERRLEEYMKTQG | 0.167
66 | HMRTPLTGREEQVATLIGRGMTNSEIAESLSVDESTVKTHIGSILRKVHLRDRLQVALWFHGLPIE | -0.354
67 | HMSLGSNISRLRAEKHLSQGDLAEALDVSRQSVSKWETDGSVPDLDKLVKLSRIFGVTLDELVTGTP | 0.0988
68 | HMQPIQPNQAKYLDGLSSKYKGKGNHSQAAQLTALRDALNAGDHAKAREIYDKLDYEPQAEAAH | 0.105
69 | HMRIWTPEMIKEYIISSNGKEPLNSHYYSTNHPSIYAAAERIFGSWGNAINAAGLDYNAIRKYK | -0.0687
70 | HMTFPYTSLKDAPKNMKEIDGVPLTLDQVNQIAKVADSIGVSKEKNGYAIAKSQFKKSHHIENNRWVKNK | 0.126
71 | HMEAFDYLGRRTRDLLERQGWTTVPLVRDAYLAVPGGERLLQVPGFGRKSLREVRRWLWLQIGDPRFE | 0.114
72 | HMYEDGGAFLKAEREKYGLTLTDIYEHTHIPVRKLKAYEMHEEEMPDRTRALLELYFDQVAYEYES | -0.339
73 | HMLVGRDPQALILGSMPSEKSLEEDEYYAHPRNRFWSLMNWLLAGNKTRPAYKTGIEILSSHGIALWV | -0.578
74 | HMLPTVSITGHIFIRSGSPLNRIFVGEKIYHVGDHIDRDWVIESIGIDTLTIRSGTLSTQLPL | 0.034
75 | HMEVADAAQRKILQALQVQPLTVEQLSQELRTDTGDLLVSLSMMEITGLIRREAGNTFLAVFAPK | -0.598
76 | HMYKSSRASKSEVNKFLKFIIQSLDKRGFLQPGHKRQSMIRNIENIFYRTNLSDQEIRILLGIFSTLNK | -0.405
